Assay results from the supplement of paper PMC12042874.
± gives the uncertainty stated by the source.

Assay: amyloid nucleation score (Sup35N fusion, yeast selection) (log enrichment); library NNK1; higher = more nucleation; inactive = no reads after selection
Summary of the method: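 Output and input plasmid inserts were sequenced by Illumina after psi-negative yeast carrying Sup35N fused to peptides of 20 random codons had been induced 24 hours with 100 μM copper sulfate and grown 7 days at 30°C on medium lacking adenine and uracil. The nucleation score is the DiMSum log enrichment of output over input reads, centred on the mode score of non-aggregating sequences. Sequences with under 100 input reads were excluded.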

| Substance | amyloid nucleation score |
| --- | --- |
| NYNVTNNALADR | -0.368 ± 1.7 |
| NYRFVCEPYFYSNCPPAQWT | 0.02 ± 0.59 |
| NYTNCTSTDRI | 0.907 ± 0.56 |
| PARATMSSLRPTSNLPFFPA | -0.459 ± 1.1 |
| PASSCAVVELGMKVGEGGIP | -0.386 ± 0.95 |
| PAVCLCNGRMDVSKNLWLCF | 7.445 ± 0.061 |
| PAYRRCRPFFVHAHRFMGST | 0.681 ± 0.44 |
| PCSQPFT | -0.154 ± 0.45 |
| PCTLGFVSSPSDG | 0.524 ± 0.46 |
| PCVQSHMCYYNMSGITKGFR | -0.332 ± 0.43 |
| PCWWQFY | 0.167 ± 0.64 |
| PDAFKSLLLERRAWIKFVSK | 1.15 ± 0.7 |
| PDDSKFSNV | 0.902 ± 0.88 |
| PDRGEKLRRLNVWNKPCFGT | 0.829 ± 0.93 |
| PEAGGLHARYVYFVWNSAPC | 2.69 ± 0.28 |
| PERTSMGSKFTTDN | -0.382 ± 0.43 |
| PFCSGALLARLG | 0.047 ± 0.77 |
| PFFRVVY | inactive |
| PFGLRYQLRIRHYTMIEELS | 1.88 ± 0.29 |
| PFHLF | 0.831 ± 0.39 |
| PFIARAFKLMLAWVLFCRAA | 0.171 ± 0.75 |
| PFRMQNDIVRDQYSVKLQWF | 3.29 ± 0.17 |

| Substance | amyloid nucleation score |
| --- | --- |
| PFSDSVARSDGCGVQRV | -0.444 ± 1.2 |
| PGLMDLSVCKKCWNCCYTYD | -0.294 ± 0.65 |
| PGSIYMSPGCGYIQAVRDHI | -0.205 ± 0.35 |
| PGSKAWFGSLISCLTPWVLR | -0.563 ± 0.85 |
| PGVPPPKRA | 0.294 ± 0.66 |
| PHGKRPGHFLKVLLAFSWRW | 0.038 ± 0.56 |
| PHPPAPKK | 0.067 ± 0.59 |
| PIDGTFL | -0.69 ± 0.62 |
| PILFYDQSFLILWQINGAGG | inactive |
| PIWLTDKFGG | -0.24 ± 0.61 |
| PIYVAGLGIVI | -0.308 ± 1.1 |
| PKDLIVTTLHAWCDRHSYT | -0.49 ± 0.76 |
| PKVWGGIHYFHFVTEYSTIS | 0.309 ± 0.29 |
| PLCEKSGCSLNFDEERQTLW | 1.43 ± 0.51 |
| PLNKSEAESLFKLLTLLDRN | -1.39 ± 0.46 |
| PLRNGWFLRKLRS | -1.35 ± 1.3 |
| PLTFSCSLGKGFTWYFCLNV | -0.196 ± 0.45 |
| PLVGGRNCGKDFPSLTDTPV | -0.06 ± 0.27 |
| PLYGASDK | -0.277 ± 0.97 |
| PMFSSGLT | 0.099 ± 0.42 |
| PMHSLTASYNDSHFRNRGVM | inactive |
| PMTPTCPLTNASTCPSTDRR | -0.644 ± 0.74 |

| Substance | amyloid nucleation score |
| --- | --- |
| PNIFCLQRSPNRP | -0.331 ± 0.31 |
| PQPYTRNIERLAYVFTLDMP | -0.21 ± 0.27 |
| PRCNSFNSYCFA | 0.224 ± 0.29 |
| PRIRHHSLYCVVYWFIIDRT | inactive |
| PRNVFMSKTNNHFQRAFSVT | 0.925 ± 0.69 |
| PSHYWNRVLLIWRLSGCVVY | -0.145 ± 0.29 |
| PSLASCSRL | 0.28 ± 0.41 |
| PSMARPAARTHVDNNRWR | -0.051 ± 0.56 |
| PSPQWYGDDNVTSRWRLLAV | 0.548 ± 0.28 |
| PSRWIAVPSMEVKVL | 0.16 ± 1.1 |
| PSSNLRFFTLNFAFLVPISS | -0.521 ± 0.64 |
| PTSSMI | 0.488 ± 1 |
| PTYTGVLSLN | 0.341 ± 0.56 |
| PVGVKGVQMVLS | -0.226 ± 0.83 |
| PVLKPGFL | -0.266 ± 0.5 |
| PVMSRPAARMMGDSCHWSNR | -0.585 ± 0.8 |
| PVVGRARRYRREAAENVVLD | 0.943 ± 0.6 |
| PWRCLM | inactive |
| PWTTG | 0.298 ± 0.24 |
| PWYTRLRRK | -0.338 ± 1.4 |
| PYHEMGIYYLGGLYSK | 0.743 ± 1.1 |
| PYKIEWLSRTHTAGSYSLQP | -0.135 ± 0.44 |

| Substance | amyloid nucleation score |
| --- | --- |
| PYLGNLNSLQGFYLS | 0.176 ± 0.78 |
| PYLNY | -0.153 ± 0.43 |
| PYRYKSGWATTQSLRREQLD | -0.743 ± 1.3 |
| PYSLQSTLHVRER | 0.485 ± 0.35 |
| PYVSHCGIHFFGWFSWSRAS | 0.583 ± 0.46 |
| PYYFEGGEAQTPRHSDGQWM | -0.769 ± 0.56 |
| QAFISFVVSFRWHLTCRS | 1.18 ± 0.64 |
| QAHLNLVSRIIIMWS | 0.067 ± 0.79 |
| QAYLKVQVWLDRRNSI | inactive |
| QCSSANTSGIAETSTSLGRT | -0.244 ± 1.1 |
| QCVRLDVTT | -2.14 ± 2.1 |
| QDLTEWTYSLAPFMVFHTRP | -0.519 ± 1.2 |
| QDYGDDLRSGFRGYLSSPQG | 0.264 ± 0.32 |
| QFEFNFTKEDQYYEGFPVDW | -0.827 ± 1.7 |
| QFLRALGYAERRVGRRWLGW | -0.065 ± 0.71 |
| QFRCFHLL | -0.026 ± 1.2 |
| QGIEKGFDWKRIFCGELYVQ | -0.065 ± 0.4 |
| QGIVAVLED | inactive |
| QGKISGNRRSFFWW | -0.765 ± 0.44 |
| QGKKPGGFQNEDMVVVLKWR | -0.601 ± 0.46 |
